The record followed here is publication PMC3931528.

The target in this data set is PTB RRM1 (UniProt P26599 41-163). As to the kind of experiment: ITC. (In general: ITC needs no label: the signal is the heat of the interaction.)
Sequence of PTB RRM1 (P26599 41-163): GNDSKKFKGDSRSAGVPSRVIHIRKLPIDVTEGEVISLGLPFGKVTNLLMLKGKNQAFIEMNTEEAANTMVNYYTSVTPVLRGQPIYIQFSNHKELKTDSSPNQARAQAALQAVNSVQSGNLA

Broadly, the Kd is the concentration at which binding is half-saturated. With UCUCU (ssRNA) [CU 5-mer RNA], the affinity, expressed as Kd, was 24.7 µM.
